B1: PenOX1: protein having the amino acid sequence of SEQ ID NO: 2, pentosidine oxidase from Sarocladium sp., gene g4462 (protein, listed as Sarocladium sp.)
chain: MKSPSLAVAGLLLGSSSLSHATQLRIETRKSLNSRIANVHIDVDAPVAHQVVFTYGPCDSESQENAHHVIAQSQKLEGRKPHRLIWTMPKDLHPDDCISAWGESGDLLGRSVPQKVAHKEMRRRKRDDSDYSIPMNSSSGIDVYGPWFDGVALLEKSDNHNVDVEAAKAKEIAIVGAGMAGLTTYFILSEAGLSNLTILEASGRLGGRVRTEYLSGGPRDHSYAEMGPMRIPYQARFGDKAYNISDQAIFFRLVEKVNERNKKLGNTKDLINLIPFIQSSPNGLAYYQGNKLENGLPPTQADVAADPALGNESPEIPESAQELAAQLQRALPNAEFLELMATNFWQAHAEFLENQGPAGLPGDQWSEFAFLVNYLNATVFDANAVTGGYDWHSSLDRSSLVGMNLLPNAFHPLVDDITKFNAKVEKVQLDEKTSRLKLHWRANYTDPELESQSFDYAILSPTMPAVQKLRLPGLPFAMRNAVDSMPYASACKVALEYRTRFWEKFDNPIYGSCSTSTDIPGIGSVCYPSSNINGSGPASLLASYEIGRPYGAEWAGIPEEQHVQYVIDAMIDIHGEVARREFTGKCKRKCWALDEFSNGGWASPTVGNHETYLPSFFETHSHMIFVGEHTSYTHAWIASAIESAVRGSVQLLLELGLIDEAKDVVNTWMARWISVVSDLSKAVVSGASA
B2: Amino Acid Oxidase Type VI Derived from Crotalus adamanteus: purchased enzyme manufactured by Merck, SEQ ID NO: 12 (protein, listed as Crotalus adamanteus)
chain: AHDRNPLEECFRETDYEEFLEIAKNGLTATSNPKRVVIVGAGMAGLSAAYVLAGAGHQVTVLEASERVGGRVRTYRKKDWYANLGPMRLPTKHRIVREYIKKFDLKLNEFSQENENAWYFIKNIRKRVREVKNNPGLLEYPVKPSEEGKSAAQLYVESLRKVVEELRSTNCKYILDKYDTYSTKEYLLKEGNLSPGAVDMIGDLLNEDSGYYVSFIESLKHDDIFGYEKRFDEIVGGMDQLPTSMYEAIKEKVQVHFNARVIEIQQNDREATVTYQTSANEMSSVTADYVIVCTTSRAARRIKFEPPLPPKKAHALRSVHYRSGTKIFLTCTKKFWEDDGIHGGKSTTDLPSRFIYYPNHNFTSGVGVIIAYGIGDDANFFQALDFKDCADIVINDLSLIHELPKEDIQTFCHPSMIQRWSLDKYAMGGITTFTPYQFQHFSEALTAPFKRIYFAGEYTAQFHGWIDSTIKSGLTAARDVNRASENPSGIHLSNDNEF
B3: Amino Acid Oxidase Type I Derived from Crotalus atrox: purchased enzyme manufactured by Merck, SEQ ID NO: 13 (protein)
chain: B2 chain
modifications: Crotalus atrox
B4: Lysine Oxidase Derived from Trichoderma viride: purchased enzyme manufactured by Merck, SEQ ID NO: 14 (protein)
chain: MDNVDFAESVRTRWARRLIREKVAKELNILTERLGEVPGIPPPREGRFLGGGYSHDNLPSDPLYSSIKPALLKEAPRAEEELPPRKVCIVGAGVSGLYIAMILDDLKIPNLTYDIFESSSRTGGRLYTHHFTDAKHDYYDIGAMRYPDIPSMKRTFNLFKRTGMPLIKYYLDGENTPQLYNNHFFAKGVVDPYMVSVANGGTVPDDVVDSVGEKLQQAFGYYKEKLAEDFDKGFDELMLVDDMTTREYLKRGGPKGEAPKYDFFAIQWMETQNTGTNLFDQAFSESVIDSFDFDNPTKPEWYCIEGGTSLLVDAMKETLVHKVQNNKRVEAISIDLDAPDDGNMSVKIGGKDYSGYSTVFNTTALGCLDRMDLRGLNLHPTQADAIRCLHYDNSTKVALKFSYPWWIKDCGITCGGAASTDLPLRTCVYPSYNLGDTGEAVLLASYTWSQDATRIGSLVKDAPPQPPKEDELVELILQNLARLHAEHMTYEKIKEAYTGVYHAYCWANDPNVGGAFALFGPGQFSNLYPYLMRPAAGGKFHIVGEASSVHHAWIIGSLESAYTAVYQFLYKYKMWDYLRLLLERWQYGLQELETGKHGTAHLQFILGSLPKEYQVKIV
modifications: Trichoderma viride

Key:
[1] = Pentosidine quantitative test (DA-67/peroxidase, A658, Bio Majesty JCA-BM1650); format: biochemical; settings: 0.2-4.0 μM pentosidine solutions, 37° C., 5 minutes; ΔA658 correlated with final pentosidine concentration (FIG. 4)
Protocol: The following reagents were prepared to measure pentosidine by using Bio Majesty JCA-BM1650 (manufactured by JEOL Ltd.).
0.2 μM, 0.4 μM, 0.6 μM, 1.0 μM, 2.0 μM or 4.0 μM pentosidine solution
25 μL of the sample was added to 50 μL of the first reagent, and the resultant was incubated at 37° C. for 5 minutes. Then, 25 μL of the second reagent was added thereto to allow a pentosidine oxidation reaction owing to PenOX2 and a detection reaction for hydrogen peroxide generated through the reaction to proceed at 37° C. for 5 minutes.
In the detection reaction for hydrogen peroxide, simultaneously with consumption of […], DA-67 is oxidized into methylene blue to present the color, and the absorbance (A658) is increased. As an example, the relationship between the elapsed time after the mixture of the sample (4.0 μM pentosidine solution) and the first reagent and the absorbance (A658) is shown in FIG. 3. It was confirmed that A658 increased immediately after the addition of the second reagent containing PenOX2.
Subsequently, an A658 increment (AA) caused by the oxidation of pentosidine was calculated in accordance with the following equation: ΔA=(absorbance 5 min after addition of second reagent)−(absorbance immediately before addition of second reagent×0.75)

[2] = Enzyme activity measurement with pentosidine as substrate (A555 change, U/mL); format: biochemical; settings: 37° C.; for pentosidine oxidase activity: purchased enzymes at 1 mg/mL, potassium phosphate buffer pH 7.5, 100 mM; for specific activity, as a reference value (pentosidine oxidase): 1 mg of powder dissolved in 1 mL deionized water
Protocol: 600 μL of an arbitrary buffer, 400 μL of deionized water solution in which 3.99 U/mL peroxidase, 1.8 mM 4-aminoantipyrine and 2 mM TOOS were dissolved, and 150 μL of deionized water were incubated at an arbitrary temperature for 10 minutes. Then, 50 μL of the enzyme solution having been stored on ice and 400 μL of a solution of 4 mM pentosidine dissolved in a 100 mM potassium phosphate buffer (pH 8.0) having been incubated at an arbitrary temperature for 10 minutes were added thereto, followed by stirring and reacting at an arbitrary temperature for 3 minutes. A change over time of A555 during the reaction was measured using a spectrophotometer (U-3900, manufactured by Hitachi High-Tech Science Corporation). An elapsed time from the start of the measurement of 20 seconds to 60 seconds—A555 change was regarded as an activity value.
Besides, an amount of the enzyme generating 1 μmol of hydrogen peroxide per minute at 37° C. was defined as one unite (U), and the activity was calculated in accordance with the following equation. Activity (U/mL)={(ΔAs−ΔA0)×1.6×df}/(39.2×0.5×0.05) • ΔAs: change of A555 per minute of reaction solution • ΔA0: change of A555 per minute of control experiment • 1.6: volume (mL) of whole reaction solution • df: dilution factor • 39.2: millimolar absorbance coefficient (mM^−1-cm-1) of quinoneimine pigment generated through reaction • 0.5: molar number of quinoneimine pigment generated by 1 mol of hydrogen peroxide • 0.05: volume (mL) of enzyme solution
A 50 mM citric acid-100 mM potassium phosphate buffer (pH 4.0 to 7.5, a final concentration), a potassium phosphate buffer (pH 6.5 to 8.0, a final concentration of 100 mM), and a glycine buffer (pH 8.0 to 11.0, a final concentration of 100 mM) were prepared, and these were used to perform an enzymatic reaction at respective pH at a temperature of 37° C. […] Therefore, it was determined that the optimum pH of PenOX2 is pH 6.5 to 8.0, and that the most suitable optimum pH is pH 7.5.
A potassium phosphate buffer (pH 7.5) having a final concentration of 50 mM was used to perform the activity measurement of PenOX2 at various temperatures. The highest activity was obtained around 50° C., and a temperature range for attaining 80% or more of this highest activity was 37° C. to 50° C. Therefore, it was determined that the range of the optimum temperature of PenOX2 is 37° C. to 50° C.
The above-described activity measurement method was employed to perform activity measurement using a potassium phosphate buffer (final pH in the activity measurement: pH 7.5, final concentration of 50 mM) at 37° C., and an activity value (U/mL) was obtained by using the aforementioned equation.
As described above, both PenOX1 and PenOX2 had the pentosidine oxidase activity. […] Subsequently, the following three enzymes were purchased, and the above-described activity measurement method was employed for confirming their pentosidine oxidase activity using a potassium phosphate buffer (pH 7.5, final concentration of 100 mM) at 37° C. The amino acid sequence homologies with PenOX1 and PenOX2 and the pentosidine oxidase activities of these enzymes were as follows.

| Molecule | pentosidine oxidation activity [1] | specific activity (pentosidine oxidase) ([2]; enzyme concentration 1 mg/mL (biuret method), pH 7.5, 100 mM) | pentosidine oxidase activity [2] | specific activity, as a reference value (pentosidine oxidase) ([2]; pH 7.5, 100 mM) |
| --- | --- | --- | --- | --- |
| B1 | similarly exhibited pentosidine oxidation activity | – | – | – |
| B2 | – | 0.555 U/mg | 0.555 U/mL | – |
| B3 | – | – | 0.022 U/mL | 0.022 U/mg |
| B4 | – | – | 0.063 U/mL | 0.063 U/mg |
